Experimental data taken from article PMC3973126 (Journal of Human Genetics, 2014).

Target: the molecule itself
Assay: atomic force microscopy

B1: UGT1A1 (sample observed by atomic force microscopy) (enzyme, human, UniProt P22309 26-533, looked up)
chain: HAGKILLIPVDGSHWLSMLGAIQQLQQRGHEIVVLAPDASLYIRDGAFYTLKTYPVPFQREDVKESFVSLGHNVFENDSFLQRVIKTYKKIKKDSAMLLSGCSHLLHNKELMASLAESSFDVMLTDPFLPCSPIVAQYLSLPTVFFLHALPCSLEFEATQCPNPFSYVPRPLSSHSDHMTFLQRVKNMLIAFSQNFLCDVVYSPYATLASEFLQREVTVQDLLSSASVWLFRSDFVKDYPRPIMPNMVFVGGINCLHQNPLSQEFEAYINASGEHGIVVFSLGSMVSEIPEKKAMAIADALGKIPQTVLWRYTGTRPSNLANNTILVKWLPQNDLLGHPMTRAFITHAGSHGVYESICNGVPMVMMPLFGDQMDNAKRMETKGAGVTLNVLEMTSEDLENALKAVINDKSYKENIMRLSSLHKDRPVEPLDLAVFWVEFVMRHKGAPHLRPAAHDLTWYQYHSLDVIGFLLAVVLTVAFITFKCCAYGYRKCLGKKGRVKKAHKSKTH
  stoichiometry N: 2
